Test results from the supplement of paper PMC10567573.

B1: MYL5 (parent)
chain: DVAGNLDYKALSYVITHGEEKEE
B2: NR2F2 (parent)
chain: NIPFFPDLQITDQVALLRLTWSEL

Variants of: B1
Test: protein stability index of a GFP-peptide fusion (GPS, HEK-293T) (PSI 1-6); higher = more stable
Conditions: c terminus: native
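Further: lentivirally expressed fusions sorted by FACS into six bins by GFP to DsRed ratio, PSI derived from sequencing read proportions per bin multiplied by bin number.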

Protein stability index, by site and new letter:
L6: Y 1.93, C 1.74, N 3.84, K 2.06, T 2.82, E 2.52, D 2.06, W 1.72, S 1.7, H 2.28, A 2.55, Q 1.93, G 1.93, M 1.76, V 1.36, P 2.01, F 2.82
D1: V 1.66, K 2.34, F 2.11, I 1.97, N 2.24, T 2.13, M 1.65, R 2.74, C 2.21, H 3.37, Q 2.1, S 2.46, P 1.66, A 2.07
A3: P 1.83, I 1.71, D 1.87, C 1.29, N 1.54, T 2.21, L 2.31, K 2.15, V 1.97, Q 1.75, E 2.1, W 3.06, Y 2.15, H 1.8
N5: K 1.97, D 2.69, T 2.29, L 3.25, V 2.05, H 1.92, F 1.87, R 1.67, Q 2.61, G 2.88, I 2.54, M 1.3, E 2.43, W 1.83
K9: P 1.95, F 2.23, C 3.09, N 2.01, S 1.56, D 2.57, M 1.6, T 2.18, H 1.53, A 2.29, Y 2.3, G 1.98, R 1.35, V 2.67, L 2.75
A10: K 3.21, P 2.28, I 2.24, R 1.74, L 1.97, N 2.48, T 1.9, S 2.08, D 2.09, H 2, G 2.1, Q 2, M 2.23, E 2.35
V2: M 1.87, L 1.78, A 1.64, Y 4.5, E 1.35, C 2.31, P 1.67, W 4.54, R 2.3, S 1.82, H 1.92, N 1.75, G 2.06, K 1.82, I 2.61, F 1.19, T 2, D 2.19
D7: T 1.57, F 1.04, A 1.89, K 3.18, Q 1.64, P 1.83, V 1.96, S 2.5, I 1.44, N 1.91, E 2.29, G 2.02, Y 2.1, M 2.11, R 1.69, H 2.83
Y8: I 2.11, V 2.62, H 1.48, T 1.42, Q 1.98, A 2.1, K 1.39, D 1.81, R 1.75, C 2.32, E 2.01, N 1.56, P 2.05
G4: C 2.45, M 1.59, R 2.5, Q 1.8, L 2.03, S 2.09, H 2.09, A 2.02, T 2.42, D 1.82, Y 1.57, I 1.46, V 1.92, N 1.51, F 1.77, E 2.63, P 1.61

Variants of: B2
Test: as above
Conditions: c terminus: a fixed tail appended

Protein stability index of substitutions, site by site:
L24: M 2.87, G 1.65, N 1.97, T 1.98, K 2.25, P 1.88, V 2.22, E 2.02, H 2.68, R 1.96, Q 1.9, Y 1.65, W 2.55, F 1.99, S 1.9
